Test results as given in US11931401B2, “Runx3 modified protein for prevention or treatment of cancer” (GeneCraft Inc., priority 2020, dated 2024).
Numbering of substitutions follows the chain as printed. In names and notes the source's numbering stands. Entries after “also recorded” stand apart in the source; their conditions may differ.

B1: S356A: Runx3 modified protein: 356th serine substituted with alanine (TCA→GCA) (protein)
chain: MRIPVDPSTSRRFTPPSPAFPCGGGGGKMGENSGALSAQAAVGPGGRARPEVRSMVDVLADHAGELVRTDSPNFLCSVLPSHWRCNKTLPVAFKVVALGDVPDGTVVTVMAGNDENYSAELRNASAVMKNQVARFNDLRFVGRSGRGKSFTLTITVFTNPTQVATYHRAIKVTVDGPREPRRHRQKLEDQTKPFPDRFGDLERLRMRVTPSTPSPRGSLSTTSHFSSQPQTPIQGTSELNPFSDPRQFDRSFPTLPTLTESRFPDPRMHYPGAMSAAFPYSATPSGTSISSLSVAGMPATSRFHHTYLPPPYPGAPQNQSGPFQANPSPYHLYYGTSSGSYQFSMVAGSSSGGDRAPTRMLASCTSSAASVAAGNLMNPSLGGQSDGVEADGSHSNSPTALSTPGRMDEAVWRPY
modifications: Myc tag; Runx3 isoform2 amino acid
B2: S356 wild type: Wild-type Runx3 (Runt-related transcription factor 3) protein, 356th serine not substituted; SEQ ID NO: 2 (protein)
chain: B1 chain with A356S
modifications: Runx3 isoform2 amino acid

Assays:
BRD2 [1] = target: T1, BRD2 (Homo sapiens, UniProt P25440); experiment: Time-dependent BRD2-RUNX3 complex formation after serum stimulation by immunoprecipitation (IP) and immunoblotting (IB); type: binding; details: overexpressed Myc-tagged protein; FIG. 1
T1 sequence (P25440 whole entry): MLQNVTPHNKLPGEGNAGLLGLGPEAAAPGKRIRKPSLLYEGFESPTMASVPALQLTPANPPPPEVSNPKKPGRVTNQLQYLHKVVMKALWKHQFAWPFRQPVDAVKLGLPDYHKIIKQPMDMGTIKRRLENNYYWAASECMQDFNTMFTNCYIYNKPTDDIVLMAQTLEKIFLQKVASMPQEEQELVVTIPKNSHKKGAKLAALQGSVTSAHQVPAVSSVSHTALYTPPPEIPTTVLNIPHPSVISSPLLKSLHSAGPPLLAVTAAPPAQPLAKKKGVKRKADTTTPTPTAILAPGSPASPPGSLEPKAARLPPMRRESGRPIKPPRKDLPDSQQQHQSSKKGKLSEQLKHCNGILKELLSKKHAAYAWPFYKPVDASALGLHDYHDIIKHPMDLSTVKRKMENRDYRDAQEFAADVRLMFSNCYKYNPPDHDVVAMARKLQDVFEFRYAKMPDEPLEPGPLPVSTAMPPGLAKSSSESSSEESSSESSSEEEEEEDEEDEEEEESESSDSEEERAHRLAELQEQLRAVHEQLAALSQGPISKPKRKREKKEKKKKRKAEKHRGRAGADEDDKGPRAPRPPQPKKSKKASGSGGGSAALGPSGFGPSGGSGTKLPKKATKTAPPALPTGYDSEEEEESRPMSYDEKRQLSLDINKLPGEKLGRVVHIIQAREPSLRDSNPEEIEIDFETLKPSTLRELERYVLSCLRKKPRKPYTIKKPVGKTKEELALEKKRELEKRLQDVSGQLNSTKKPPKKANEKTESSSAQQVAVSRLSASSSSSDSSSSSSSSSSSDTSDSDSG
Method: The antibody targeting RUNX3 (5G4) (Cat #ab40278) was obtained from Abcam (Cambridge, UK), and the antibody was diluted 1:3000. BRD2 (M01; 1:1000; Cat #H00006046-M01, Abnova, Taipei City, Taiwan) was used for immunoblotting and immunoprecipitation.
RUNX3 phosphorylation in serine, the 356th amino acid of Runx3 protein, was measured by immunoprecipitation (IP) and immunoblotting (IB) in the same manner as described in Experimental Method 3 above.

BRD2 [2] = target: T1, BRD2; experiment: Time for which Runx3 protein forms a complex with Brd2 protein (IP/IB); type: binding; details: for time for which physical binding / complex with BRD2 was maintained: IP/IB
Method: The modified protein in which the 356th amino acid of Runx3 is substituted with alanine blocks the physical binding between Runx3 and CDK4, thereby inhibiting the phosphorylation of the 356th serine of Runx3 by CDK4. By inhibiting the conversion of the Rpa-Rx3-AC complex including Runx3 to the Rpa-Rx3-TR complex, the function of maintaining the anticancer activity of Runx3 is improved. Thus, the following experiment was performed to compare the time for the modified protein in which the 356th amino acid of Runx3 is substituted with alanine to form a complex by binding to Brd2 protein with the wild-type Runx3.
Particularly, the antibody targeting RUNX3 (5G4) (Cat #ab40278) was obtained from Abcam (Cambridge, UK), and the antibody was diluted 1:3000. BRD2 (M01; 1:1000; Cat #H00006046-M01, Abnova, Taipei City, Taiwan) was used for immunoblotting and immunoprecipitation.

lung cancer cell lines = experiment: Apoptosis by flow cytometry (FITC-Annexin V / propidium iodide), lung cancer cell lines; type: cell-based
Method: (§1) Each cell line was cultured in a 10 cm culture dish (5×10^5 cells) for 2 days and then approximately 2×10^6 cells of each cell line was infected with 1×10^8 VP of adenovirus or adenovirus Runx3 or adenovirus Runx3 S356A. After 48 hours, the cell death rate was measured by flow cytometry.

[3] = test system: stomach cancer cell lines; experiment: Apoptosis by flow cytometry (FITC-Annexin V / propidium iodide), stomach cancer cell lines; type: cell-based; details: stomach (gastric) cancer cell lines; listed as modified protein in which the 356th serine of Runx3 is substituted with alanine
Method: as §1

[4] = test system: pancreatic cancer cell lines; experiment: Apoptosis by flow cytometry (FITC-Annexin V / propidium iodide), pancreatic cancer cell lines; type: cell-based; details: listed as modified protein in which the 356th serine of Runx3 is substituted with alanine
Method: as §1

Molecule	time for which binding with BRD2 was maintained after the serum stimulation (BRD2 [1]) [h]	time for which physical binding / complex with BRD2 was maintained (BRD2 [2])	cancer cell killing compared to the wild-type Runx3 protein (in words) (lung cancer cell lines)	increase of apoptosis rate compared to the wild-type Runx3 protein (lung cancer cell lines; flow cytometry) [times]	cancer cell death efficacy compared to the wild-type Runx3 protein (in words) [3]	cancer cell death efficacy compared to the wild-type Runx3 protein (in words) [4]	time after which the binding of Runx3 and BRD2 was separated (BRD2 [2]; after the binding) [h]
B1	≤ 8	up to 40 hours	more effective in killing cancer cells	≥ 2	more effective in killing cancer cells; also recorded: further increased the cancer cell death efficacy	more effective in killing cancer cells; also recorded: further increased the cancer cell death efficacy	
B2		up to 8 hours					3
